Experimental data as given in patent US6395275 (Scripps Research, dated 2002).
Changes are numbered by the printed parent chain.

B1: Fab M556-2 (Fab, V domains shown)
VH: LEQSGAEVKKPGASVKVSCQASGYRFSNFTVHWVRQAPGQRFEWMGWINPYNGNKEFSAKFQDRVTFTADTSANTAYMELRSLRSADTAVYYCARVGEWGWEQFRFDNYYMDVWGKGTTVIVSS
VL: ELTQSPGTLSLSPGERATFSCRSSHSIRSRRVAWYQHKPGQAPRLVIHGVSNRASGISDRFSGSGSGTDFTLTITRVEPEDFALYYCQVYGASSYTFGQGTKLERKR
B2: Fab M556-15 (Fab, V domains shown)
VH: B1 VH with E102T, F104R
VL: B1 VL
B3: Fab M556-3 (Fab, V domains shown)
VH: B1 VH with Q103M, F106Y
VL: B1 VL
B4: Fab M556-16 (Fab, V domains shown)
VH: B1 VH with E102D, F104V, F106Y
VL: B1 VL
B5: Fab M556-7 (Fab, V domains shown)
VH: B1 VH with Q103M, F104R
VL: B1 VL
B6: Fab M556-10 (Fab, V domains shown)
VH: B1 VH with E102H, F104R, F106Y
VL: B1 VL
B7: Fab QA11 (Fab, V domains shown)
VH: B1 VH with E102D, Q103D, F104S, R105P, F106Q
VL: B1 VL with S26Q, I27L, R28D, S29G, R30S, V89T, A92R, S93G, S94H
notes: also called LH (its light chain)
B8: Fab QA8 (Fab, V domains shown)
VH: B1 VH with E102D, Q103D, F104S, R105P, F106Q
VL: B1 VL with S26Q, I27L, R28D, S29G, R30S, V89Q, A92D, S94L
B9: Fab QA9 (Fab, V domains shown)
VH: B1 VH with E102D, Q103D, F104S, R105P, F106Q
VL: B1 VL with S26Q, I27L, R28D, S29G, R30S, V89M, A92G, S93F, S94T
B10: Fab QA10 (Fab, V domains shown)
VH: B1 VH with E102D, Q103D, F104S, R105P, F106Q
VL: B1 VL with S26Q, I27L, R28D, S29G, R30S, V89T, A92R, S93G
B11: Fab QA4 (Fab, V domains shown)
VH: B1 VH with E102D, Q103D, F104S, R105P, F106Q
VL: B1 VL with S26Q, I27L, R28D, S29G, R30S, V89S, A92G, S93R, S94D
B12: Fab QA5 (Fab, V domains shown)
VH: B1 VH with E102D, Q103D, F104S, R105P, F106Q
VL: B1 VL with S26Q, I27L, R28D, S29G, R30S, V89T, A92W, S94G
B13: Fab QA1 (Fab, V domains shown)
VH: B1 VH with E102D, Q103D, F104S, R105P, F106Q
VL: B1 VL with S26Q, I27L, R28D, S29G, R30S, A92W, S94Q
B14: Fab QA12 (Fab, V domains shown)
VH: B1 VH with E102D, Q103D, F104S, R105P, F106Q
VL: B1 VL with S26Q, I27L, R28D, S29G, R30S, V89T, A92R, S93G, S94I
B15: Fab QA2 (Fab, V domains shown)
VH: B1 VH with E102D, Q103D, F104S, R105P, F106Q
VL: B1 VL with S26Q, I27L, R28D, S29G, R30S, V89L, A92R, S93G, S94N
B16: composite Fab H101/L42-16 (Fab, V domains shown)
VH: B1 VH with N28H, M45H, E102H, F104R, F106Y
VL: B1 VL with S26Q, I27L, R28D, S29G, R30S, V89Q, A92W, S93P, S94F
B17: composite Fab H103/L42-4 (Fab, V domains shown)
VH: B1 VH with N28H, V31L, M45H, E102H, F104R, F106Y
VL: B1 VL with S26Q, I27L, R28D, S29G, R30S, V89Q, A92W, S93P, S94F
B18: composite Fab H101/L42-1 (Fab, V domains shown)
VH: B1 VH with N28H, M45H, E102H, F104R, F106Y
VL: B1 VL with S26Q, I27L, R28D, S29G, R30S, V89Q, A92W, S93P, S94F
B19: composite Fab 4H/L42-1 (Fab, V domains shown)
VH: B1 VH with T30V, V31I, E98P, W99Y, G100S, E102D, Q103D, F104S, R105P, F106Q
VL: B1 VL with S26Q, I27L, R28D, S29G, R30S, V89Q, A92W, S93P, S94F
B20: composite Fab H33/L42-17 (Fab, V domains shown)
VH: B1 VH with N28H, V31L, M45H, Q103M, F106Y
VL: B1 VL with S26Q, I27L, R28D, S29G, R30S, V89Q, A92W, S93P, S94F
B21: composite Fab H33/LH-11 (Fab, V domains shown)
VH: B1 VH with N28H, V31L, M45H, Q103M, F106Y
VL: B1 VL with S26Q, I27L, R28D, S29G, R30S, V89T, A92R, S93G, S94H
B22: composite Fab H31/4L-14 (Fab, V domains shown)
VH: B1 VH with N28H, M45H, Q103M, F106Y
VL: B1 VL
B23: composite Fab H101/4L-1 (Fab, V domains shown)
VH: B1 VH with N28H, M45H, E102H, F104R, F106Y
VL: B1 VL

target: T1, recombinant gp120 of HIV-1 strain IIIb (HIV-1 strain IIIb, UniProt P04578 33-511); assay: SPR BIAcore, gp120 on chip;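 as to Ka: fab fragments flowed at 0.5 to 10 ug/ml over immobilized gp120, resonance units tracked during association and dissociation, equilibrium constants derived from the rate constants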
T1 construct: domain: gp120; also called IIIb-derived gp120; gp 120 (IIIB strain)
Source text: (§1) As the mass of the gold chips increases due to the binding of the Fabs to the ligand, the refractive index of the chips increases indicating a coordinate increase in the increase of the mass. Measurements of the "on" rate are made in addition to the "off" rates, the latter of which occurs as the Fabs begin to dissociate from the ligand and the mass coordinately decreases, thereby allowing a measurement of the change of the refractive index. Briefly, the sensor chip was activated for immobilization with N-hydroxysuccinimide an N-ethyl-N'-(3-diethyl aminopropyl) carbodiimide. The proteins, MN-derived or IIIb-derived gp120, were coupled to the surface by injection of 50 ul of a 50 ug/ml sample. Excess activated esters were quenched with 15 ul ethanolamine, 1 M pH 8.5. Typically, 4000 resonance units were immobilized. Binding of Fab fragments to immobilized gp120 was studied by injection of Fab in a range of concentrations (0.5 to 10 ug/ml) at a flow rate of 5 ul/minute. The association was monitored as the increase in resonance units per unit time. Dissociation measurements were acquired following the end of the association phase but with a flow rate of 50 ul/minute. The binding surface was regenerated with HCl, 1M NaCl, pH 3 and remained active for 20–40 measurements. […] Equilibrium association and dissociation constants were deduced from the rate constants.
The soluble M556 series Fabs were then analyzed for binding affinity to gp120 (strain IIIB).

Going from B1 to B2, the “Fold Increase of Mutant Kd Compared to MT4 Kd” value (from here on “Fold Increase”) rises from 14.3 fold to 36.2 fold.

First: B3
Second: B4
The “Fold Increase” value of the first is higher: 63 fold for the first, 45.3 fold for the second.

First: B5
Second: B6
The “Fold Increase” value of the first is lower: 48.1 fold for the first, 69.5 fold for the second.

Compared with B1, B2 is 2.5-fold lower in Kd: 0.439 nM for the first, 0.174 nM for the second.

B3 and B4 are within 1.5-fold of each other in Kd: 0.101 nM for the first, 0.139 nM for the second.

B5 and B6 are within 1.5-fold of each other in Kd: 0.131 nM for the first, 0.0906 nM for the second.

target: T1, recombinant gp120 of HIV-1 strain IIIb; assay: SPR BIAcore, gp120 on chip; remark: another data set of the same source;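 as to Ka: fab fragments flowed at 0.5 to 10 ug/ml over immobilized gp120, resonance units tracked during association and dissociation, equilibrium constants derived from the rate constants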
Source text: In the assay, the gp120 glycoprotein, isolated from both MN (AgMed, Cambridge, Mass.) and IIIb (American Bio-Technologies) strains of HIV-1 were coated onto gold chips. […] As the mass of the gold chips increases due to the binding of the Fabs to the ligand, the refractive index of the chips increases indicating a coordinate increase in the increase of the mass. Measurements of the "on" rate are made in addition to the "off" rates, the latter of which occurs as the Fabs begin to dissociate from the ligand and the mass coordinately decreases, thereby allowing a measurement of the change of the refractive index. Briefly, the sensor chip was activated for immobilization with N-hydroxysuccinimide an N-ethyl-N'-(3-diethyl aminopropyl) carbodiimide. The proteins, MN-derived or IIIb-derived gp120, were coupled to the surface by injection of 50 ul of a 50 ug/ml sample. Excess activated esters were quenched with 15 ul ethanolamine, 1 M pH 8.5. Typically, 4000 resonance units were immobilized. Binding of Fab fragments to immobilized gp120 was studied by injection of Fab in a range of concentrations (0.5 to 10 ug/ml) at a flow rate of 5 ul/minute. The association was monitored as the increase in resonance units per unit time. Dissociation measurements were acquired following the end of the association phase but with a flow rate of 50 ul/minute. The binding surface was regenerated with HCl, 1M NaCl, pH 3 and remained active for 20–40 measurements. […] Equilibrium association and dissociation constants were deduced from the rate constants.

First: B7
Second: B8
The “Fold Increase” value of the first is higher: 94.4 fold for the first, 14.3 fold for the second.

Compared with B9, B10 is higher in “Fold Increase” value: 10.3 fold for the first, 85.9 fold for the second.

Compared with B11, B12 is higher in “Fold Increase” value: 12.6 fold for the first, 13.7 fold for the second.

Going from B13 to B14, the “Fold Increase” value rises from 12.2 fold to 48.6 fold.

For B15, the “Fold Increase” value was 14.9 fold.

Going from B7 to B8, the Kd rises from 0.067 nM to 0.44 nM (6.6-fold). The first binds more tightly here.

First: B9
Second: B10
The Kd of the first is 8.2-fold higher: 0.61 nM for the first, 0.074 nM for the second.

B11 and B12 are within 1.5-fold of each other in Kd: 0.5 nM for the first, 0.46 nM for the second.

Going from B13 to B14, the Kd falls from 0.51 nM to 0.13 nM (3.9-fold).

B15 showed a Kd of 0.42 nM.

target: T1, recombinant gp120 of HIV-1 strain IIIb; assay: SPR BIAcore, gp120 on chip; remark: another data set of the same source;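 as to Ka: fab fragments flowed at 0.5 to 10 ug/ml over immobilized gp120, resonance units tracked during association and dissociation, equilibrium constants derived from the rate constants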

B16 and B17 are within 1.5-fold of each other in koff: 1.19e-05 s⁻¹ for the first, 9.41e-06 s⁻¹ for the second.

Going from B18 to B19, the koff rises from 1.74e-05 s⁻¹ to 0.000615 s⁻¹ (35-fold).

Going from B20 to B21, the koff falls from 1.78e-05 s⁻¹ to 5.45e-06 s⁻¹ (3.3-fold).

First: B22
Second: B23
The koff of the first is 10-fold lower: 3.39e-06 s⁻¹ for the first, 3.39e-05 s⁻¹ for the second.

B16 and B17 are within 1.5-fold of each other in kon: 69100 M⁻¹ s⁻¹ for the first, 81800 M⁻¹ s⁻¹ for the second.

Going from B18 to B19, the kon rises from 134000 M⁻¹ s⁻¹ to 296000 M⁻¹ s⁻¹ (2.2-fold).

B20 and B21 are within 1.5-fold of each other in kon: 98400 M⁻¹ s⁻¹ for the first, 73200 M⁻¹ s⁻¹ for the second.

First: B22
Second: B23
The kon of the first is 5.8-fold lower: 153000 M⁻¹ s⁻¹ for the first, 893000 M⁻¹ s⁻¹ for the second.

target: T1, recombinant gp120 of HIV-1 strain IIIb; assay: SPR BIAcore, gp120 on chip; remark: another data set of the same source;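 as to Ka: fab fragments flowed at 0.5 to 10 ug/ml over immobilized gp120, resonance units tracked during association and dissociation, equilibrium constants derived from the rate constants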
Source text: as §1
The soluble composite Fabs were then analyzed for binding affinity to gp120 strain IIIB.

Compared with B16, B17 is higher in “Fold Increase” value: 36.6 fold for the first, 55.8 fold for the second.

First: B18
Second: B19
The “Fold Increase” value of the first is higher: 48.5 fold for the first, 3.02 fold for the second.

First: B20
Second: B21
The “Fold Increase” value of the first is lower: 34.4 fold for the first, 85.4 fold for the second.

First: B22
Second: B23
The “Fold Increase” value of the first is higher: 284 fold for the first, 16.6 fold for the second.

First: B16
Second: B17
The Ka of the first is 1.5-fold lower: 5.81e+09 M⁻¹ for the first, 8.88e+09 M⁻¹ for the second.

Going from B18 to B19, the Ka falls from 7.7e+09 M⁻¹ to 4.81e+08 M⁻¹ (16-fold).

First: B20
Second: B21
The Ka of the first is 2.5-fold lower: 5.46e+09 M⁻¹ for the first, 1.36e+10 M⁻¹ for the second.

Compared with B22, B23 is 17-fold lower in Ka: 4.51e+10 M⁻¹ for the first, 2.63e+09 M⁻¹ for the second.

Going from B16 to B17, the Kd falls from 0.172 nM to 0.113 nM (1.5-fold).

Compared with B18, B19 is 16-fold higher in Kd: 0.13 nM for the first, 2.08 nM for the second. The first binds more tightly here.

Compared with B20, B21 is 2.5-fold lower in Kd: 0.183 nM for the first, 0.0738 nM for the second.

Compared with B22, B23 is 17-fold higher in Kd: 0.0222 nM for the first, 0.38 nM for the second.

target: T1, recombinant gp120 of HIV-1 strain IIIb; assay: SPR BIAcore, gp120 on chip (summary table)

Going from B1 to B16, the Kd falls from 0.439 nM to 0.17 nM (2.6-fold).

B17 and B18 are within 1.5-fold of each other in Kd: 0.113 nM for the first, 0.13 nM for the second.

First: B20
Second: B21
The Kd of the first is 2.5-fold higher: 0.183 nM for the first, 0.0738 nM for the second. The second binds more tightly here.

Compared with B7, B8 is 6.6-fold higher in Kd: 0.067 nM for the first, 0.44 nM for the second. The first binds more tightly here.

Going from B9 to B10, the Kd falls from 0.61 nM to 0.074 nM (8.2-fold). The second binds more tightly here.

First: B22
Second: B2
The Kd of the first is 7.9-fold lower: 0.022 nM for the first, 0.174 nM for the second.

Going from B3 to B23, the Kd rises from 0.1 nM to 0.38 nM (3.8-fold).

Going from B11 to B4, the Kd falls from 0.5 nM to 0.139 nM (3.6-fold).

Compared with B5, B6 is 7-fold higher in Kd: 0.13 nM for the first, 0.906 nM for the second. The first binds more tightly here.

B12 and B13 are within 1.5-fold of each other in Kd: 0.46 nM for the first, 0.51 nM for the second.

Compared with B14, B15 is 3.2-fold higher in Kd: 0.13 nM for the first, 0.42 nM for the second.
